In the supplement of paper PMC9112550, “Optimization of the antimicrobial peptide Bac7 by deep mutational scanning” (BMC Biology, 2022):

Test system: Escherichia coli TOP10
Test: shrunken log2 fold change of peptide-encoding DNA abundance (4.5 h post-induction vs induction); higher = less antimicrobial activity (less host growth inhibition)
Details: time post-induction: 4.5 h; library: site-saturation at positions 5, 18, 19, 20
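Note: peptides expressed intracellularly from a pBAD plasmid library in pooled LB shake-flask culture, induced with 0.3% L-arabinose, DNA abundance read by NGS, three biological replicates, DESeq2 with apeglm shrinkage.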

Sequence | shrunken log2 fold change
RRIRCRPPRLPRPRPRPQEEPRP | -0.0124
RRIRFRPPRLPRPRPRPIKWPRP | -0.101
RRIRCRPPRLPRPRPRPFWPPRP | 0.161
RRIRNRPPRLPRPRPRPKPDPRP | 0.355
RRIRVRPPRLPRPRPRPSSKPRP | -0.0737
RRIRFRPPRLPRPRPRPMCHPRP | -0.325
RRIRQRPPRLPRPRPRPTGNPRP | -0.0862
RRIRKRPPRLPRPRPRPVDKPRP | 0.0581
RRIRLRPPRLPRPRPRPYWQPRP | 0.0322
RRIRSRPPRLPRPRPRPHDFPRP | -0.0847
RRIRGRPPRLPRPRPRPGWYPRP | -0.0318
RRIRYRPPRLPRPRPRPKHHPRP | -0.986
RRIRGRPPRLPRPRPRPHYFPRP | 0.313
RRIRGRPPRLPRPRPRPQVFPRP | 0.0336
RRIRKRPPRLPRPRPRPWNMPRP | -0.181
RRIRARPPRLPRPRPRPKQSPRP | 0.608
RRIRNRPPRLPRPRPRPWNNPRP | -0.15
RRIRQRPPRLPRPRPRPIMFPRP | -0.144
RRIRQRPPRLPRPRPRPGGAPRP | 0.485
RRIRTRPPRLPRPRPRPRQAPRP | 0.171
RRIRSRPPRLPRPRPRPMPHPRP | 0.00101
RRIRWRPPRLPRPRPRPIWQPRP | -0.0567
RRIRRRPPRLPRPRPRPNWQPRP | 0.00842
RRIRRRPPRLPRPRPRPNPRPRP | 1.11
RRIRWRPPRLPRPRPRPMVDPRP | -0.0461

Sequence | shrunken log2 fold change
RRIRWRPPRLPRPRPRPNAVPRP | 0.259
RRIRKRPPRLPRPRPRPETGPRP | 0.226
RRIRARPPRLPRPRPRPFQVPRP | 0.0694
RRIRDRPPRLPRPRPRPRSAPRP | 0.321
RRIRDRPPRLPRPRPRPKTVPRP | 0.271
RRIRFRPPRLPRPRPRPQKYPRP | -0.864
RRIRARPPRLPRPRPRPVWPPRP | 0.623
RRIRVRPPRLPRPRPRPICIPRP | -0.449
RRIRPRPPRLPRPRPRPKGEPRP | 0.125
RRIRCRPPRLPRPRPRPGVEPRP | 0.0401
RRIRSRPPRLPRPRPRPNKWPRP | -0.0551
RRIRNRPPRLPRPRPRPNHAPRP | -0.0192
RRIRWRPPRLPRPRPRPWIDPRP | -0.049
RRIRPRPPRLPRPRPRPAGFPRP | 0.301
RRIRLRPPRLPRPRPRPQFNPRP | -0.57
RRIRMRPPRLPRPRPRPMMYPRP | -0.0758
RRIRRRPPRLPRPRPRPRWPPRP | 0.598
RRIRHRPPRLPRPRPRPKDPPRP | 0.0476
RRIRWRPPRLPRPRPRPPSIPRP | 0.357
RRIRHRPPRLPRPRPRPAVNPRP | -0.0508
RRIRNRPPRLPRPRPRPQSEPRP | -0.0564
RRIRARPPRLPRPRPRPYDNPRP | -0.0875
RRIRVRPPRLPRPRPRPMGAPRP | 0.813
RRIRIRPPRLPRPRPRPMRIPRP | -0.0754
RRIRGRPPRLPRPRPRPASLPRP | 0.472

Sequence | shrunken log2 fold change
RRIRDRPPRLPRPRPRPETHPRP | 0.739
RRIRDRPPRLPRPRPRPKRPPRP | 0.449
RRIRLRPPRLPRPRPRPNVCPRP | -0.0138
RRIRDRPPRLPRPRPRPHMIPRP | -0.125
RRIRGRPPRLPRPRPRPWFGPRP | -0.05
RRIRHRPPRLPRPRPRPITRPRP | -0.0356
RRIRWRPPRLPRPRPRPNSVPRP | -0.325
RRIRHRPPRLPRPRPRPVCFPRP | -0.0341
RRIRYRPPRLPRPRPRPFKDPRP | -0.0864
RRIRLRPPRLPRPRPRPFTVPRP | 0.0023
RRIRYRPPRLPRPRPRPHGPPRP | -0.239
RRIRTRPPRLPRPRPRPGNLPRP | 0.021
RRIRYRPPRLPRPRPRPQDEPRP | -0.0312
RRIRFRPPRLPRPRPRPVEMPRP | -0.327
RRIRGRPPRLPRPRPRPEHKPRP | 0.464
RRIRYRPPRLPRPRPRPERRPRP | 0.197
RRIRHRPPRLPRPRPRPMRTPRP | -0.11
RRIRHRPPRLPRPRPRPPPVPRP | 0.658
RRIRRRPPRLPRPRPRPANEPRP | 0.245
RRIRARPPRLPRPRPRPFVDPRP | 0.302
RRIRRRPPRLPRPRPRPHGMPRP | 0.0957
RRIRGRPPRLPRPRPRPMTHPRP | 0.708
RRIRSRPPRLPRPRPRPETWPRP | -0.0382
RRIRFRPPRLPRPRPRPCAPPRP | -0.121
RRIRERPPRLPRPRPRPPNFPRP | -0.329
